Values of other authors in patent US12128089B2 (Slayback Pharma LLC, priority 2022, dated 2024).
Where two headings read alike, the source gives them in different places.

Legend:
[1] = dilute aqueous solutions, random coil conformation
[2] = not given; remark: listed apart in the source
[3] = not given; remark: listed apart in the source
[4] = neutral aqueous solution

Glucagon
α-helix at the C-terminal end [1]: 15%
Half-life in plasma: 3 to 6 min
Solubility in aqueous solutions ([2]; pH less than 3 or greater than 9): > 10000 µg/mL
Solubility in aqueous solutions ([2]; pH range of 4 to 8): < 100 µg/mL
Onset of action post injection [3]: 5 to 20 min
Precipitation after preparation [4]: precipitates within an hour of preparation
